Experimental data taken from patent US11813311B2, “Treatment and prevention of metabolic diseases” (Singapore Health Services PTE LTD., priority 2019, dated 2023).

Experiments:
Assay type in all cases: in vivo, mouse
[1] = test system: mice with UUO-induced kidney injury; assay: Weight loss after UUO-induced acute kidney injury; settings: 20 mg/kg 2×/week from day 4 post-UUO
Experimental: In further experiments, mice were subjected to unilateral ureter obstruction (UUO)-induced acute kidney injury. UUO surgeries were carried out on 12-week old mice. Briefly, mice were anesthetized by IP injection of ketamine (100 mg/kg)/xylazine (10 mg/kg) and full depth of anaesthesia was accessed with the pedal reflex. Mice were then shaved on the left side of the abdomen. A vertical incision was made through the skin with a scalpel, a second incision was made through the peritoneum to reveal the kidney. Using forceps, the kidney was brought to the surface and the ureter was tied with surgical silk, twice, below the kidney. The ligated kidney was placed gently back into its correct anatomical position and sterile saline was added to replenish loss of fluid. The incisions were then sutured. Animals were post-operatively treated with antibiotic enrofloxacin (15 mg/kg, SC) and analgesic buprenorphine (0.1 mg/kg, SC) for three consecutive days. Mice were sacrificed 10 days post-ligation. Mice were intraperitoneally injected with 20 mg/kg (2×/week) of anti-IL-11 antibody or identical concentration of IgG isotype control from day 4 post-surgery until the mice were sacrificed.

[2] = test system: WDF-fed mice; assay: WDF NASH reversal model (Example 4); settings: WDF 16 weeks, then 10 mg/kg for 8 weeks on continued WDF
Experimental: FIGS. 21A to 21L. Inhibition of Il-11 signalling reverses NASH pathologies in preclinical models and HSC-to-myofibroblast transformation. (A) Schematic showing therapeutic dosing regime in NASH reversal experiment for data shown in (B-G). Mice were fed with WDF for 16 weeks to induce NASH and then treated with (10 mg/kg) X209 or IgG for 8 weeks while they were on continuous WDF feeding. (B) Total liver hydroxyproline content, the levels of (C) liver triglycerides, (D) serum ALT, (E), fasting blood glucose, (F) serum triglycerides, and (G) serum cholesterol in mice on NC and IgG- and X209-treated WDF (n≥5/group). (H) Schematic showing reversal experiment in which fibrosis was established by feeding mice HFMCD for 10 weeks and then replacing this with NC and initiating antibody (X203 and X209) therapy. Mice were euthanized at the indicated time points. (I) Total liver hydroxyproline content (dotted line represents the mean value of NC=0.93) and (J) relative mRNA expression of Mmp2/Timp1 at 1-, 3-, 6-weeks after concurrent metabolic intervention (diet switch) and X203, X209, or IgG treatment (n≥3/group). Quantification of ACTA2^+ve immunostaining (scale bars, 200 μm) following incubation (K) with TGFβ1 or (L) with PDGF, either prior to or after the addition of X203, X209, or IgG (n=5/group). (K-L) TGFβ1 (5 ng/ml), PDGF (20 ng/ml), IgG, X203 and, X209 (2 μg/ml). (B-G, K-L) Data are shown as box-and-whisker with median (middle line), 25th-75th percentiles (box) and min-max percentiles (whiskers); (I) data are shown as mean±s.d; (J) data are represented as line chart (mean) and transparencies indicate s.d. (B) Two-tailed Student's t-test (C-G,K-L) two-tailed, Tukey-corrected Student's t-test; (I-J) two-way ANOVA. FC: fold change; NC: normal chow; WDF: Western diet+15% (w/v) fructose; HFMCD: high fat methionine- and choline-deficient.
Ten week old male C57Bl/6J mice were fed Western diet (D12079B, Research Diets), supplemented with 15% weight/volume fructose in drinking water to mimic NAFLD/NASH like humans 17,18, whereas control mice received normal chow and tap water. Durations of diet and antibody therapies are described.
Mice were injected intraperitoneally with either antagonist anti-IL-11 antibody, antagonist anti-IL11RA antibody or an identical amount of IgG isotype control for the treatment durations outlined in the figures.
Mice were fasted for 6 h prior to blood collection (via tail snip) and Accu-Chek blood glucose meter was used to take fasting glucose measurements.

[3] = test system: WDF-fed mice; assay: WDF diet-induced obesity/T2D model (Example 2)
Experimental: Mice were injected intraperitoneally with 10 mg/kg of an antagonist anti-IL-11 antibody, an antagonist anti-IL-11Rα antibody, or an identical amount of isotype-matched IgG control antibody. The anti-IL-11 and anti-IL-11Rα antibodies bind to mouse IL-11 and mouse IL-11Rα respectively, and inhibit IL-11 mediated signalling.
In order to establish metabolic diseases such as obesity and T2D, mice were fed Western diet (D12079B, Research Diets), supplemented with 15% weight/volume fructose in drinking water (WDF) for 16 weeks, from 12 weeks of age.
Total body fat and lean mass measurements were performed every two weeks by EchoMRI analysis using 4in1 Body Composition Analyzer for Live Small Animals.
For fasting blood glucose measurements, mice were fasted for 6 hours prior to blood collection (via tail snip), and Accu-Chek blood glucose meter was used to obtain fasting glucose measurements.
For intraperitoneal glucose tolerance tests, mice were fasted for 6 h prior to being subjected to ipGTT. Basal fasting glucose was measured by tail snip using Accu-Chek blood glucose meter. 2 g/kg lean mass glucose was injected intraperitoneally, and glucose measurements were taken every 15 min for 2 hours. The area under the curve (AUC) was calculated, and plotted as bar graphs.
For histological analysis, pancreas samples were excised and fixed for 24 hours at RT in 4% neutral-buffered formalin (NBF), and stored in 30% sucrose. 5 μm cryosections were stained with either glucagon or insulin antibodies overnight, and visualized with ImmPRESS HRP IgG polymer detection kit (Vector Laboratories) with ImmPACT DAB Peroxidase Substrate (Vector Laboratories) according to standard protocols, and examined by light microscopy.

B1: X203: mouse anti-mouse IL-11 IgG (IgG1κ), neutralising; VH SEQ ID NO:22, VL SEQ ID NO:23 (antibody, V domains shown)
VH: EVQLQQSGPELVKPGASVKIPCKASGYTFTDYNMDWVKQSHGKSLEWIGDINPHNGGPIYNQKFTGKATLTVDKSSSTAYMELRSLTSEDTAVYYCARGELGHWYFDVWGTGTTVTVSS
VL: DIVLTQSPASLAVSLGQRATISCRASKSVSTSGYSYIHWYQQKPGQPPKLLIYLASNLDSGVPARFSGSGSGTDFTLNIHPVEEEDAATYYCQHSRDLPPTFGGGTKLEIK
modifications: Enx203 VH; Enx203 VL
regain of body weight [1]: regained their body weight more quickly than those receiving IgG control | time to return to normal weight [1]: ≤ 4 days

B2: X209: mouse anti-mouse IL-11Rα IgG (IgG1κ), neutralising; VH SEQ ID NO:24, VL SEQ ID NO:25 (antibody, V domains shown)
VH: QVQLQQPGAELVRPGSSVKLSCKASGYTFTNYWMHWLKQRPVQGLEWIGNIGPSDSKTHYNQKFKDKATLTVDKSSSTAYMQLNSLTSEDSAVYYCARGDYVLFTYWGQGTLVTVSA
VL: DIVLTQSPATLSLSPGERATLSCRASQSISNNLHWYQQKSHEAPRLLIKYASQSISGIPARFSGSGSGTDFTLSFSSLETEDFAVYFCQQSYSWPLTFGQGTKLEIK
modifications: Enx209 VH; Enx209 VL
hepatic Erk activation [2]: inhibited | liver fibrosis [2]: reversal | liver inflammation [2]: reversal | liver steatosis [2]: reversal | serum ALT levels [2]: reduction | serum cholesterol levels [2]: reduction | serum glucose [2]: reduction | serum triglycerides [2]: reduction | body weight ([3]; WDF-fed mice vs IgG control): significant reduction in body weight | fasting blood glucose levels ([3]; WDF-fed mice vs IgG control): significantly lower | fat mass ([3]; WDF-fed mice vs IgG control): significantly reduced fat mass | glucose tolerance (ipGTT) ([3]; WDF-fed mice vs IgG control): significant improvement in glucose tolerance | lean mass ([3]; WDF-fed mice vs IgG control): increase in lean mass | serum cholesterol levels ([3]; WDF-fed mice vs IgG control): significantly lower | serum triglyceride levels ([3]; WDF-fed mice vs IgG control): significantly lower | pancreas weight ([3]; treated from 8 to 16 weeks or from 16 to 24 weeks): remarkable protection against WDF-induced loss of pancreas | glucagon staining in pancreatic islets ([3]; treatment from 16 to 24 weeks): remarkably reduced | insulin expression in the islets ([3]; treatment from 16 to 24 weeks): improved | islet hyperplasia ([3]; treatment from 16 to 24 weeks): remarkably reduced
